What was measured:
[1] = target: LuS-N71-SpyTag (Aquifex aeolicus); assay: SDS-PAGE of the covalent conjugate, band intensities; conjugated product or conjugation mixture on SDS-PAGE with DTT; band intensity and molecular weight used to work out the molar share of conjugated nanoparticle subunit
[2] = target: ferritin-N96-SpyTag (Helicobacter pylori); assay: as above

Substance | percent of nanoparticle subunit conjugated [1] [%] | percent of nanoparticle subunit conjugated [2] [%]
PIV3 F-SpyCatcher | 68 | –
RSV F-SpyCatcher | 67 | 85

— publication PMC7584627
